The conditions of series [1]: rat.
Protocol: Anti-TCF polyclonal antibody was dissolved in 0.1M NaHCO3 solution to a final concentration of 10 μg/mL. One hundred microliters of the antibody solution was added to each well and the plates were left overnight at room temperature. The wells were filled with 50% solution of Block Ace in H2 O, incubated for 1 hour at room temperature and washed three times with washing solution (PBS containing 0.1% Tween 20 ). Plasma samples periodically collected from the rats which were intravenously injected with TCF or the modified TCFs were diluted with normal rat serum, when necessary. TCF solutions serially diluted with normal rat serum (from 10 ng/mL) was used as the standard TCF solution. Fifty microliters of the sample solution and 50 μL of the first buffer (0.2M Tris HCl pH 7.3 containing 50% Block Ace, 0.2M NaCl, 0.1% Tween 20, 0.2% CHAPS, 20 mM Benzamidine hydrochloride, and 10 mM EDTA) was mixed and added to each well. The plates were left for 3 hours at 37° C. and washed three times with the washing buffer. One hundred microliters of the peroxidase-labeled anti-TCF antibody solution, which was 400-fold diluted with 0.1M phosphate buffer pH 7.0 containing 10% Block Ace, 0.15M NaCl, 0.1% Tween 20, 4% rat serum and 0.5% mouse IgG, was added to each well. Plates were incubated for hours at 37° C. and washed three times with the washing buffer. Subsequently, 100 μL of substrate solution (0.4 mg/mL of o-phenylene diamine dihydrochloride and 0.006% H2 O2 in 0.1M citrate-phosphate buffer, pH 4.5) was added to each well and incubated at 37° C. for 30 minutes in a dark place. The enzyme reaction was stopped by addition of 50 μL of 6N H2 SO4. The absorbance at 492 nm was measured on an immuno reader (Corona Co.). Thus concentrations of the TCF or the modified TCFs in rat serum were determined.
Time course of plasma levels were examined by EIA in rats after the single intravenous injection of TCF and the modified TCFs. Hale Wister rats weighing about 200 g were used.
Series [2] concerns Meth A sarcoma. In words: Tumor cytotoxic activity (MTT). As to conditions: Meth A cells, 5 days, serial dilution from 50 ng/mL, FIG. 9. Format: cell-based. Here is the method:
Tumor cytotoxic activities of TCF, TCF-3 and TCF-13 were measured. Meth A sarcoma was used as a target cell line. The cells were suspended in RPMI medium (GIBCO Co.) supplemented with 10% FCS at a final cell density of 2×10^4 cells per mL. Fifty microliters of the cell suspension was inoculated into each well in 96-well flat-bottomed microtiter plates. The purified TCF, TCF-3 and TCF-13 were serially diluted with RPMI medium from the concentration of 50 ng/mL, and the 50 μL of each diluted sample was added to each test well. After incubation at 37° C. for 5 days, MTT was added at a final concentration of 0.5 mg/ml and the plates were incubated at 37° C. Four hours later, 100 μL of the solution containing 10% SDS and […] was added to each well and left overnight at room temperature. Next day, the absorbance at 620 nm was measured as a parameter of the viable cell numbers in each well.

The conditions of series [3]: background statement; cited from earlier work.
Series [4] relates to normal cells. The conditions noted are these: background statement; cited from earlier work.
The test system of series [5] is tumor cells. The conditions noted are these: background statement; cited from earlier work.
Where [6] appears, read: single i.v. injection, 50 μg/kg, two-compartment model, Mean ± SD, *P < 0.05, **P < 0.01 vs wild-type TCF.

Values joined by “and” are separate entries in the source; they are usually repeats but may differ in a detail not shown here. Identical values can stand only once. Like-named read-outs stand apart in the source and are kept apart here.

As to “TCF-3: modified TCF which lacks oligosaccharide chain 3 (Ser at 563rd replaced with Ala)”, in series [1] (in vivo), the “bioavailabilities (in words)” value was “larger bioavailabilities”. For the same substance, in series [1] (in vivo, iv), the “AUC (in words)” value is reported as “larger AUC”, the “CLtotal (total clearance)” value came out at 18.8 ± 2.1 mL/min/kg, the “metabolic fates (in words)” value is reported as “slower metabolic fates” and the “plasma half-lives (in words)” value is on record as “prolonged”. Besides, in series [1] (in vivo, iv), the “t1/2 α (plasma half-life of rapid phase)” value is 2.9 ± 0.3 min, the “t1/2 β (plasma half-life of slower phase)” value came out at 54.2 ± 8.3 min and the “total clearance (in words)” value is given as “decreased”. The “tumor cytotoxic activity (in words)” value in series [2] is “cytotoxic activities to Meth A cells in a dose-dependent manner”.

Regarding “TCF: tumor cytotoxic factor derived from human fibroblast; wild-type glycoprotein with four N-linked oligosaccharide chains”, in series [1] (setting [6]), the “t1/2 α (plasma half-life of rapid phase)” value was 2.4 ± 2.5 min and 2.4 ± 0.5 min; the “t1/2 β (plasma half-life of slower phase)” value worked out at 15.6 ± 4.6 min. Also, the “CLtotal (total clearance)” value in series [1] (single i.v. injection, 50 μg/kg, Mean ± SD, **P < 0.01 vs wild-type TCF) amounted to 51.5 ± 13.9 mL/min/kg. Besides, the half-life entry in series [3] is “approximately 2 minutes”. Further, the “growth stimulating activity for normal cells (in words)” value in series [4] is “growth stimulating activity for normal cells”. Further, in series [2], the “tumor cytotoxic activity (in words)” value is given as “cytotoxic activities to Meth A cells in a dose-dependent manner”. In series [5], the “cytotoxic activity against tumor cells (in words)” value is given as “strong cytotoxic activity against tumor cells”.

Source of the values: patent US5648233A, “Modified tumor cytotoxic factor (TCF) and DNA encoding such” (Snow Brand Milk Products Co., Ltd., priority 1992, dated 1997).
